For one substance, OD signal results are on record in US9187553.

The target in this test is recombinant human FceRIa D2/D1 subunit (human) (UniProt P12319). Kind of test: ELISA, IgE captured by His-tagged receptor on Ni-treated plate.
Chain of UniProt P12319 (P12319 26-205): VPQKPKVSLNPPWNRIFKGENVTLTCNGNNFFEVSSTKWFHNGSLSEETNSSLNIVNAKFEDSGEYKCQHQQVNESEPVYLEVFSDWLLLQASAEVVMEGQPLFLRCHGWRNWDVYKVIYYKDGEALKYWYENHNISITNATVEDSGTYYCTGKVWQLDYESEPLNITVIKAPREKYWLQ

Turning to human myeloma IgE (BED) (antibody), the OD signal at 50 ng/ml stood at 1.2 OD.
